{
  "source": "patent US20250206828A1",
  "about": "“ANTI-ADENOSINE RECEPTOR (A2aR) ANTIBODIES AND THE USE THEREOF” (Adept Therapeutics Inc., priority 2022, published 2025)",
  "data": [
    {"target": "T1, human adenosine A2A receptor (A2aR) (human, UniProt P29274 1-412)", "T1 construct": "Assays used HEK293 cells stably overexpressing human A2aR (BPS Bioscience 79381), human A2aR-expressing CHO cells, or endogenous A2aR on human PBMC; also called human A2aR; hA2aR", "T1 sequence (P29274 whole entry)": "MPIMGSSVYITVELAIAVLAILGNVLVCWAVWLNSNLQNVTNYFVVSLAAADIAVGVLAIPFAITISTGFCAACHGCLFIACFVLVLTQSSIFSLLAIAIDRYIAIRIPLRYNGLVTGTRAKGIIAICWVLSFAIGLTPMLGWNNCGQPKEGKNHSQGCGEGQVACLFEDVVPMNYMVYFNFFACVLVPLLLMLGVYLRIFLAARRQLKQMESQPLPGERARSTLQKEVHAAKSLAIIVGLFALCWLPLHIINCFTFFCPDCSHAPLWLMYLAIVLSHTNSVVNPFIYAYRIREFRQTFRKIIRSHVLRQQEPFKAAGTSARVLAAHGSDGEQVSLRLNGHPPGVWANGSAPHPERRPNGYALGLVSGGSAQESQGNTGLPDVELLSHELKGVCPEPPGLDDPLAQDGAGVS", "experiment": "flow cytometry, HEK293-hA2aR cells, supernatant 1 ug/ml", "units": {"MFI": "MFI"}, "values": [
      {"binder": "Hu1B5-H2.1/Hu1B5-L2 (antibody, human IgG1, V domains shown, Human IgG1 FES (L234F, L235E, P331S) and human Ig kappa constant domains) VH: EVQLVQSGAEVKKPGASVKVSCKTSGFTFTRFWMNWVRQAPGQGLEWIGRIDPYDSETQYNHKFWDRVTMTVDTSTSTVYMELSSLRSEDTAVYYCGRSLYGKGDYWGQGTTVTVSS VL: DVVMTQSPLSLPVTLGQPASISCRSSQSIVHSNGNTYLEWYQQRPGQSPRRLIYKVSNRFSGVPDRFSGSGSGTDFTLKISRVEAEDVGVYYCFQGSHVPLTFGGGTKVEIK", "MFI": 225},
      {"binder": "Hu1B5-H4/Hu1B5-L2 (antibody, human IgG1, V domains shown, Human IgG1 FES (L234F, L235E, P331S) and human Ig kappa constant domains) VH: EVQLVQSGAEVKKPGASVKVSCKTSGFTFTRFWMNWVRQAPGQGLEWIGRIDPYDSETQYNHKFWDRATLTVDKSSSTVYMELSSLRSEDTAVYYCGRSLYGKGDYWGQGTTVTVSS VL: DVVMTQSPLSLPVTLGQPASISCRSSQSIVHSNGNTYLEWYQQRPGQSPRRLIYKVSNRFSGVPDRFSGSGSGTDFTLKISRVEAEDVGVYYCFQGSHVPLTFGGGTKVEIK", "MFI": 263},
      {"binder": "Hu1B5-H4/Hu1B5-L3 (antibody, human IgG1, V domains shown, Human IgG1 FES (L234F, L235E, P331S) and human Ig kappa constant domains) VH: EVQLVQSGAEVKKPGASVKVSCKTSGFTFTRFWMNWVRQAPGQGLEWIGRIDPYDSETQYNHKFWDRATLTVDKSSSTVYMELSSLRSEDTAVYYCGRSLYGKGDYWGQGTTVTVSS VL: DVVMTQSPLSLPVTLGQPASISCRSSQSIVHSNGNTYLEWYQQRPGQSPRLLIYKVSNRFSGVPDRFSGSGSGTDFTLKISRVEAEDVGVYYCFQGSHVPLTFGGGTKVEIK", "MFI": 1860},
      {"binder": "Hu1B5-H5/Hu1B5-L3 (antibody, human IgG1, V domains shown, Human IgG1 FES (L234F, L235E, P331S) and human Ig kappa constant domains) VH: EVQLVQSGAEVKKPGASVKVSCKTSGFTFTRFWMNWVRQAPGQGLEWIGRIDPYDSETQYAHKFWDRATLTVDKSSSTVYMELSSLRSEDTAVYYCGRSLYGKGDYWGQGTTVTVSS VL: DVVMTQSPLSLPVTLGQPASISCRSSQSIVHSNGNTYLEWYQQRPGQSPRLLIYKVSNRFSGVPDRFSGSGSGTDFTLKISRVEAEDVGVYYCFQGSHVPLTFGGGTKVEIK", "MFI": 1950},
      {"binder": "Hu1B5-H1/Hu1B5-L3 (antibody, human IgG1, V domains shown, Human IgG1 FES (L234F, L235E, P331S) and human Ig kappa constant domains) VH: QVQLVQSGAEVKKPGASVKVSCKASGFTFTRFWMNWVRQAPGQGLEWMGRIDPYDSETQYNHKFWDRVTMTRDTSTSTVYMELSSLRSEDTAVYYCGRSLYGKGDYWGQGTTVTVSS VL: DVVMTQSPLSLPVTLGQPASISCRSSQSIVHSNGNTYLEWYQQRPGQSPRLLIYKVSNRFSGVPDRFSGSGSGTDFTLKISRVEAEDVGVYYCFQGSHVPLTFGGGTKVEIK", "MFI": 1840},
      {"binder": "Hu1B5-H5/Hu1B5-L2 (antibody, human IgG1, V domains shown, Human IgG1 FES (L234F, L235E, P331S) and human Ig kappa constant domains) VH: EVQLVQSGAEVKKPGASVKVSCKTSGFTFTRFWMNWVRQAPGQGLEWIGRIDPYDSETQYAHKFWDRATLTVDKSSSTVYMELSSLRSEDTAVYYCGRSLYGKGDYWGQGTTVTVSS VL: DVVMTQSPLSLPVTLGQPASISCRSSQSIVHSNGNTYLEWYQQRPGQSPRRLIYKVSNRFSGVPDRFSGSGSGTDFTLKISRVEAEDVGVYYCFQGSHVPLTFGGGTKVEIK", "MFI": 283},
      {"binder": "Hu1B5-H2.1/Hu1B5-L3 (antibody, human IgG1, V domains shown, Human IgG1 FES (L234F, L235E, P331S) and human Ig kappa constant domains) VH: EVQLVQSGAEVKKPGASVKVSCKTSGFTFTRFWMNWVRQAPGQGLEWIGRIDPYDSETQYNHKFWDRVTMTVDTSTSTVYMELSSLRSEDTAVYYCGRSLYGKGDYWGQGTTVTVSS VL: DVVMTQSPLSLPVTLGQPASISCRSSQSIVHSNGNTYLEWYQQRPGQSPRLLIYKVSNRFSGVPDRFSGSGSGTDFTLKISRVEAEDVGVYYCFQGSHVPLTFGGGTKVEIK", "MFI": 1860},
      {"binder": "Hu1B5-H3/Hu1B5-L3 (antibody, human IgG1, V domains shown, Human IgG1 FES (L234F, L235E, P331S) and human Ig kappa constant domains) VH: EVQLVQSGAEVKKPGASVKVSCKTSGFTFTRFWMNWVRQAPGQGLEWIGRIDPYDSETQYNHKFWDRATLTVDTSSSTVYMELSSLRSEDTAVYYCGRSLYGKGDYWGQGTTVTVSS VL: DVVMTQSPLSLPVTLGQPASISCRSSQSIVHSNGNTYLEWYQQRPGQSPRLLIYKVSNRFSGVPDRFSGSGSGTDFTLKISRVEAEDVGVYYCFQGSHVPLTFGGGTKVEIK", "MFI": 1850},
      {"binder": "Hu1B5-H3/Hu1B5-L2 (antibody, human IgG1, V domains shown, Human IgG1 FES (L234F, L235E, P331S) and human Ig kappa constant domains) VH: EVQLVQSGAEVKKPGASVKVSCKTSGFTFTRFWMNWVRQAPGQGLEWIGRIDPYDSETQYNHKFWDRATLTVDTSSSTVYMELSSLRSEDTAVYYCGRSLYGKGDYWGQGTTVTVSS VL: DVVMTQSPLSLPVTLGQPASISCRSSQSIVHSNGNTYLEWYQQRPGQSPRRLIYKVSNRFSGVPDRFSGSGSGTDFTLKISRVEAEDVGVYYCFQGSHVPLTFGGGTKVEIK", "MFI": 231}
    ]}
  ]
}
